One block for each molecule: values may come before it.
Legend:
[1] = target: KIF21B-FL-GFP (full-length KIF21B-GFP) (human); assay: single-molecule fluorescence intensity analysis (TIRF); GFP-tagged motors moving on MTs, compared with single GFP immobilized, or KIF5B-560-GFP moving, in a separate chamber on the same coverslip; 15 µM tubulin, 20 nM mCherry-EB3, MRB80 with 50 mM KCl, 30°C
[2] = target: KIF21B-FL-GFP (full-length KIF21B-GFP) (human); assay: single-molecule fluorescence intensity and photobleaching-step analysis (TIRF); purified GFP fusions diluted in PBS and immobilized on plasma-cleaned coverslips, room temperature; compared with monomeric GFP and dimeric GFP-EB3
[3] = target: KIF21B-FL-ΔrCC-GFP (human); assay: as above
[4] = target: KIF21B-MD-CC1-GFP (purified) (human); assay: single-molecule fluorescence intensity analysis (TIRF); GFP-tagged motors moving on MTs, compared with single GFP immobilized, or KIF5B-560-GFP moving, in a separate chamber on the same coverslip; 15 µM tubulin, 20 nM mCherry-EB3, MRB80 with 50 mM KCl, 30°C
[5] = target: KIF21B-MD-CC1-GFP (purified) (human); assay: single-molecule fluorescence intensity and photobleaching-step analysis (TIRF); purified GFP fusions diluted in PBS and immobilized on plasma-cleaned coverslips, room temperature; compared with monomeric GFP and dimeric GFP-EB3
[6] = target: KIF21B-MD-CCΔrCC-GFP (human); assay: as above
[7] = target: the molecule itself; assay: single-molecule fluorescence intensity analysis (TIRF); GFP-tagged motors moving on MTs, compared with single GFP immobilized, or KIF5B-560-GFP moving, in a separate chamber on the same coverslip; 15 µM tubulin, 20 nM mCherry-EB3, MRB80 with 50 mM KCl, 30°C

stoichiometry N [1]: 2 | stoichiometry N [2]: 2
Molecule: KIF21B-FL-GFP (full-length KIF21B-GFP) (natural protein)

stoichiometry N [3]: 2
Molecule: KIF21B-FL-ΔrCC-GFP (natural protein)

Molecule: KIF21B-MD-CC1-GFP (purified) (domain or fragment)
fluorescence intensity relative to single monomeric GFP [4]: 1.8 fold | stoichiometry N [5]: 2

stoichiometry N [6]: 2
Molecule: KIF21B-MD-CCΔrCC-GFP (domain or fragment)

B1: KIF5B-560-GFP (domain or fragment, UniProt P33176 1-560, looked up)
chain: MADLAECNIKVMCRFRPLNESEVNRGDKYIAKFQGEDTVVIASKPYAFDRVFQSSTSQEQVYNDCAKKIVKDVLEGYNGTIFAYGQTSSGKTHTMEGKLHDPEGMGIIPRIVQDIFNYIYSMDENLEFHIKVSYFEIYLDKIRDLLDVSKTNLSVHEDKNRVPYVKGCTERFVCSPDEVMDTIDEGKSNRHVAVTNMNEHSSRSHSIFLINVKQENTQTEQKLSGKLYLVDLAGSEKVSKTGAEGAVLDEAKNINKSLSALGNVISALAEGSTYVPYRDSKMTRILQDSLGGNCRTTIVICCSPSSYNESETKSTLLFGQRAKTIKNTVCVNVELTAEQWKKKYEKEKEKNKILRNTIQWLENELNRWRNGETVPIDEQFDKEKANLEAFTVDKDITLTNDKPATAIGVIGNFTDAERRKCEEEIAKLYKQLDDKDEEINQQSQLVEKLKTQMLDQEELLASTRRDQDNMQAELNRLQAENDASKEEVKEVLQALEELAVNYDQKSQEVEDKTKEYELLSDELNQKSATLASIDAELQKLKEMTNHQKKRAAEMMASLLK
notes: KIF5B (kinesin-1), residues 1–560; also called N-terminal fragment of kinesin-1, KIF5B residues 1–560; not shown: GFP, C-terminal, kept
fluorescence intensity relative to single monomeric GFP [7]: ~1.8 fold | stoichiometry N [7]: 2
